Reference: the RNAGym collection of RNA variant scans (doi:10.7554/elife.80360)

B1: CPEB3 Ribozyme (parent)
chain: GGGGGCCACAGCAGAAGCGUUCACGUCGCGGCCCCUGUCAGAUUCUGGUGAAUCUGCGAAUUCUGCUGU

Variants of: B1
Assay: self-cleavage, relative activity (ratio to wild type); higher = more cleavage; co-transcriptional

In order of rising self-cleavage:
1. GGGGGCCACAGCAGAAGCGUUCCCGUCCCGGCCCCUGUCAGAUUCUGGUGAAUCUGCGAAUUCUGCUGU [A23C G28C]  0.183
2. GGGGGCCACAGCAGAAGCGUUCCCGUCGCGCCCCCUGUCAGAUUCUGGUGAAUCUGCGAAUUCUGCUGU [A23C G31C]  0.186
3. GGGGGCCACAGCAGAAGCGUUCCCAUCGCGGCCCCUGUCAGAUUCUGGUGAAUCUGCGAAUUCUGCUGU [A23C G25A]  0.203
4. GGGGGCCACAGCAGAAGCGUUCCCGUCACGGCCCCUGUCAGAUUCUGGUGAAUCUGCGAAUUCUGCUGU [A23C G28A]  0.206
5. GGGGGCCACAGCAGAAGCGUUCCCGUCGCGGCCCCUGGCAGAUUCUGGUGAAUCUGCGAAUUCUGCUGU [A23C U38G]  0.216
6. GGGGGCCACAGCAGAAGCGUUCGCGUUGCGGCCCCUGUCAGAUUCUGGUGAAUCUGCGAAUUCUGCUGU [A23G C27U]  0.222
7. GGGGGCCACAGCAGAAGCGUUCGCGUCGCGGCCCCUGUCAGAUUCUGGUGAAUCUGCGACUUCUGCUGU [A23G A60C]  0.249
8. GGGGGCCACAGCAGAAGCGUUCCCGUCGCGGCCCCUCUCAGAUUCUGGUGAAUCUGCGAAUUCUGCUGU [A23C G37C]  0.254
9. GGGGGCCACAGCAGAAGCGUUCCCGUCGCGGCCCCUAUCAGAUUCUGGUGAAUCUGCGAAUUCUGCUGU [A23C G37A]  0.3
10. GGGGGCCACAGCAGAAGCGUUCGCGUAGCGGCCCCUGUCAGAUUCUGGUGAAUCUGCGAAUUCUGCUGU [A23G C27A]  0.303
11. GGGGGCCACAGCAGAAGCGUUCGCGUCGCGGCCCCUGUCCGAUUCUGGUGAAUCUGCGAAUUCUGCUGU [A23G A40C]  0.328
12. GGGGGCCACAGCAGAAGCGUUCCCGUCGCGGCCCCUGUCAGAUUCUGGUGAAUCUGAGAAUUCUGCUGU [A23C C57A]  0.339
13. GGGGGCCACAGCAGAAGCGUUCGGGUCGCGGCCCCUGUCAGAUUCUGGUGAAUCUGCGAAUUCUGCUGU [A23G C24G]  0.36
14. GGGGGCCACAGCAGAAGCGUUCGCGUCGCGGCCCCUGUCAGAUUCUGGUGAAUCUGCGAUUUCUGCUGU [A23G A60U]  0.385
15. GGGGGCCACAGCAGAAGCGUUCGCGUCGAGGCCCCUGUCAGAUUCUGGUGAAUCUGCGAAUUCUGCUGU [A23G C29A]  0.401
16. GGGGGCCACAGCAGAAGCGUUCCCGUCGCGGCCCCUGUCAGAUUCUGGUGAAUCUGUGAAUUCUGCUGU [A23C C57U]  0.406
17. GGGGGCCACAGCAGAAGCGUUCCCGUCGCGGCCCCUGUCAGAUUCUGGUGAAUCUGGGAAUUCUGCUGU [A23C C57G]  0.412
18. GGGGGCCACAGCAGAAGCGUUCCCGUCGCGGCCCGUGUCAGAUUCUGGUGAAUCUGCGAAUUCUGCUGU [A23C C35G]  0.417
19. GGGGGCCACAGCAGAAGCGUUCCCGUCGCGUCCCCUGUCAGAUUCUGGUGAAUCUGCGAAUUCUGCUGU [A23C G31U]  0.528
20. GGGGGCCACAGCAGAAGCGUUCCCGUCGCGGCCCCUGUCAGAUUCUGGUGAAUCUGCGAAUUCUCCUGU [A23C G65C]  0.535
21. GGGGGCCACAGCAGAAGCGUUCCCGUCGCGGCCCCUGUCAGAUUCUGGUGAAUCUGCGAAUUGUGCUGU [A23C C63G]  0.573
22. GGGGGCCACAGCAGAAGCGUUCCCGUCGCCGCCCCUGUCAGAUUCUGGUGAAUCUGCGAAUUCUGCUGU [A23C G30C]  0.58
23. GGGGGCCACAGCAGAAGCGUUCCCGUCGCGGCCCCUGUCAGAUUCUGGUGAAUCUGCGAAUUCUUCUGU [A23C G65U]  0.674
24. GGGGGCCACAGCAGAAGCGUUCCCGUCGCGGCCCCCGUCAGAUUCUGGUGAAUCUGCGAAUUCUGCUGU [A23C U36C]  0.679
25. GGGGGCCACAGCAGAAGCGUUCGCGUCGCGGCCCCUGUCAGAUUCUGGUGAAUCUGCGCAUUCUGCUGU [A23G A59C]  0.699
26. GGGGGCCACAGCAGAAGCGUUCGAGUCGCGGCCCCUGUCAGAUUCUGGUGAAUCUGCGAAUUCUGCUGU [A23G C24A]  0.711
27. GGGGGCCACAGCAGAAGCGUUCCCGUCGCGGCCCCUGUCAGAUUCUGGUGAAUCUGCGAAUUAUGCUGU [A23C C63A]  0.738
28. GGGGGCCACAGCAGAAGCGUUCCCGUCGCAGCCCCUGUCAGAUUCUGGUGAAUCUGCGAAUUCUGCUGU [A23C G30A]  0.743
29. GGGGGCCACAGCAGAAGCGUUCCCGGCGCGGCCCCUGUCAGAUUCUGGUGAAUCUGCGAAUUCUGCUGU [A23C U26G]  0.749
30. GGGGGCCACAGCAGAAGCGUUCCCGUCGCGGCCCCUGUCAGAUUCUGGUGAAUCUCCGAAUUCUGCUGU [A23C G56C]  0.762
31. GGGGGCCACAGCAGAAGCGUUCCCGUCGCGGCCCCUGUCAGAUUCUGGUGAAUCUGCGAAUUCUACUGU [A23C G65A]  0.764
32. GGGGGCCACAGCAGAAGCGUUCCCGUCGCGGCCCCUGUCAGAAUCUGGUGAAUCUGCGAAUUCUGCUGU [A23C U43A]  0.771
33. GGGGGCCACAGCAGAAGCGUUCCCGUCGCGGCCCCUGUAAGAUUCUGGUGAAUCUGCGAAUUCUGCUGU [A23C C39A]  0.798
34. GGGGGCCACAGCAGAAGCGUUCCCGUCGCGGCCCCUGUCAGAUUCUGGUGAAGCUGCGAAUUCUGCUGU [A23C U53G]  0.81
35. GGGGGCCACAGCAGAAGCGUUCCCGUCGCGGCCCCUGUCAUAUUCUGGUGAAUCUGCGAAUUCUGCUGU [A23C G41U]  0.815
36. GGGGGCCACAGCAGAAGCGUUCGCGUCGCGGCCCCUGUCAGAUUCUGGUGAAUCUGCGUAUUCUGCUGU [A23G A59U]  0.817
37. GGGGGCCACAGCAGAAGCGUUCCCGUCGCGGCCCCUGUCAGAUUCUGGUGAAUCUGCGAAUCCUGCUGU [A23C U62C]  0.818
38. GGGGGCCACAGCAGAAGCGUUCCCGUCGCGGCCCCUGUCAGAGUCUGGUGAAUCUGCGAAUUCUGCUGU [A23C U43G]  0.82
39. GGGGGCCACAGCAGAAGCGUUCCCGUCGCGGCCCCUGUCAGAUUCUGGUGAAUCUGCGAAAUCUGCUGU [A23C U61A]  0.832
40. GGGGGCCACAGCAGAAGCGUUCGUGUCGCGGCCCCUGUCAGAUUCUGGUGAAUCUGCGAAUUCUGCUGU [A23G C24U]  0.833
41. GGGGGCCACAGCAGAAGCGUUCCCGUCGCGGCCCCUGUCAGAUUCUGGUGAAUCUACGAAUUCUGCUGU [A23C G56A]  0.852
42. GGGGGCCACAGCAGAAGCGUUCCCGUCGCGGCCCCUGUCAGAUUCUGGUGAAUCUGCGAAUGCUGCUGU [A23C U62G]  0.853
43. GGGGGCCACAGCAGAAGCGUUCCCGUCGCGGCCCCUGUCAGAUUCUGGUGAAUCUGCGAAGUCUGCUGU [A23C U61G]  0.855
44. GGGGGCCACAGCAGAAGCGUUCGCGUCGCGGCCCCUGUCAGAUUCUGGUGAAUCUGCGAGUUCUGCUGU [A23G A60G]  0.866
45. GGGGGCCACAGCAGAAGCGUUCCCGUCGCGGCCCCUGUCAGAUCCUGGUGAAUCUGCGAAUUCUGCUGU [A23C U44C]  0.874
46. GGGGGCCACAGCAGAAGCGUUCCCGUCGCGGCCCCUGUCAGAUUCUGGUGAAUCUGCGAAUUCGGCUGU [A23C U64G]  0.878
47. GGGGGCCACAGCAGAAGCGUUCCCGUCGCGGCCCCUGUCAGAUUCUGGUGAAUCCGCGAAUUCUGCUGU [A23C U55C]  0.891
48. GGGGGCCACAGCAGAAGCGUUCCCGUCGCGGCCCCUGUCAGAUUCUGGUGAAUCUGCCAAUUCUGCUGU [A23C G58C]  0.891
49. GGGGGCCACAGCAGAAGCGUUCCCGUCGCGGCCCCUGUGAGAUUCUGGUGAAUCUGCGAAUUCUGCUGU [A23C C39G]  0.905
50. GGGGGCCACAGCAGAAGCGUUCCCGUCGCGGCCCCUGUCAGAUUCUGGUGAAUCUGCGAAUUCUGAUGU [A23C C66A]  0.908
51. GGGGGCCACAGCAGAAGCGUUCCCGUCGCGGCCCCUGUCAGAUUCUGGUGAAUCUGCGAAUUCCGCUGU [A23C U64C]  0.912
52. GGGGGCCACAGCAGAAGCGUUCCCGUCGCGGCCCCUGUCAGAUUCUGGUGAACCUGCGAAUUCUGCUGU [A23C U53C]  0.915
53. GGGGGCCACAGCAGAAGCGUUCCCGUCGCGGCCCCUGUCAGAUUCUGGUGAAUGUGCGAAUUCUGCUGU [A23C C54G]  0.921
54. GGGGGCCACAGCAGAAGCGUUCCCGUCGCGGCCCCUGUCAGAUUCAGGUGAAUCUGCGAAUUCUGCUGU [A23C U46A]  0.923
55. GGGGGCCACAGCAGAAGCGUUCCCGUCGCGGCCCCUGUCAGAUUCUGCUGAAUCUGCGAAUUCUGCUGU [A23C G48C]  0.924
56. GGGGGCCACAGCAGAAGCGUUCCCGUCGCGGCCCCUGUCAGAUUCUGGCGAAUCUGCGAAUUCUGCUGU [A23C U49C]  0.927
57. GGGGGCCACAGCAGAAGCGUUCCCGUCGCGGCCCCUGUCAGAUUGUGGUGAAUCUGCGAAUUCUGCUGU [A23C C45G]  0.931
58. GGGGGCCACAGCAGAAGCGUUCGCGUCGCGGCCCCUGUCAGAUUCUGGUGAUUCUGCGAAUUCUGCUGU [A23G A52U]  0.933
59. GGGGGCCACAGCAGAAGCGUUCGCGUCGCGGCCCCUGUCAGAUUCUGGUGACUCUGCGAAUUCUGCUGU [A23G A52C]  0.935
60. GGGGGCCACAGCAGAAGCGUUCCCGUCGCGGCCUCUGUCAGAUUCUGGUGAAUCUGCGAAUUCUGCUGU [A23C C34U]  0.936
61. GGGGGCCACAGCAGAAGCGUUCCCGUCGCGGCCCCUGUCAGAUUCUGGUGAAUCUGCGAAUUCUGUUGU [A23C C66U]  0.94
62. GGGGGCCACAGCAGAAGCGUUCCCGUCGCGGCCCCUGUCAGAUUCUGGUAAAUCUGCGAAUUCUGCUGU [A23C G50A]  0.946
63. GGGGGCCACAGCAGAAGCGUUCCCGUCGCGGCCCCUGUCAGAUUCUGGAGAAUCUGCGAAUUCUGCUGU [A23C U49A]  0.951
64. GGGGGCCACAGCAGAAGCGUUCCCGUCGCGGCCCCUGUCAGAUUCUGGUUAAUCUGCGAAUUCUGCUGU [A23C G50U]  0.953
65. GGGGGCCACAGCAGAAGCGUUCCCGUCGCGGCCCCUGUCAGAUUCUGGUGAAUCUGCGAAUUCUGCUGA [A23C U69A]  0.959
66. GGGGGCCACAGCAGAAGCGUUCCCGUCGCGGCCCCUGUCAGAUUUUGGUGAAUCUGCGAAUUCUGCUGU [A23C C45U]  0.961
67. GGGGGCCACAGCAGAAGCGUUCCCGUCGCGGCCCCUGUCAGAUUCUGGUGAAUUUGCGAAUUCUGCUGU [A23C C54U]  0.967
68. GGGGGCCACAGCAGAAGCGUUCCCGUCGCGGCCCCUGUCAGAUUCUGGUGAAUCUGCGAAUUCUGCCGU [A23C U67C]  0.97
69. GGGGGCCACAGCAGAAGCGUUCCCGUCGCGGCCCCUGUCAGAUUCUGGUGAAUCUGCGAAUUCUGCUCU [A23C G68C]  0.977
70. GGGGGCCACAGCAGAAGCGUUCCCGUCGCGGCCCCUGUCAGAUUCUGGUCAAUCUGCGAAUUCUGCUGU [A23C G50C]  0.981
71. GGGGGCCACAGCAGAAGCGUUCGCGUCGCGGCCCCUGUCAGAUUCUGGUGAAUCUGCGAAUUCUGCUGU [A23G]  0.984
72. GGGGGCCACAGCAGAAGCGUUCCCGUCGCGGCCCCUGUCAGAUUAUGGUGAAUCUGCGAAUUCUGCUGU [A23C C45A]  0.986
73. GGGGGCCACAGCAGAAGCGUUCCCGUCGCGGCCCCUGUCAGAUUCUGGUGAAUCUGCGAAUUCUGCAGU [A23C U67A]  0.988
74. GGGGGCCACAGCAGAAGCGUUCGCGUCGCGGCCCCUGUCGGAUUCUGGUGAAUCUGCGAAUUCUGCUGU [A23G A40G]  0.992
75. GGGGGCCACAGCAGAAGCGUUCCCGUCGCGGCCCCUGUCAGAUUCUGGUGAAUCUGCGAAUUCUGCUUU [A23C G68U]  0.995
76. GGGGGCCACAGCAGAAGCGUUCGCGUCGCGGCCCCUGUCAGAUUCUGGUGUAUCUGCGAAUUCUGCUGU [A23G A51U]  1
77. GGGGGCCACAGCAGAAGCGUUCGCGUCGCGGCCCCUGUCAGAUUCUGGUGAGUCUGCGAAUUCUGCUGU [A23G A52G]  1.02
78. GGGGGCCACAGCAGAAGCGUUCCCGUCGCGGCCCCUGUCAGAUUCUGGUGAAUCUGCGAAUUCUGCUGC [A23C U69C]  1.04
